Changes are numbered by the printed parent chain. Entries after “also recorded” stand apart in the source; their conditions may differ.
T1: endogenous phosphorylated Rab10 in human PBMC (Homo sapiens, UniProt P61026)
T1 construct: Strong endogenous phosphorylated Rab10 or phosphorylated Rab8a in human PBMC; host or cells: human PBMC
T1 sequence (P61026 1-200): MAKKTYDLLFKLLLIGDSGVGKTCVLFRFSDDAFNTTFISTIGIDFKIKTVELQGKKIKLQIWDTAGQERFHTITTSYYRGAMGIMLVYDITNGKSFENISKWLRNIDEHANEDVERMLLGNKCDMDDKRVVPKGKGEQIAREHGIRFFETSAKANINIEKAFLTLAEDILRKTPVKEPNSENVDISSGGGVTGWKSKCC

T2: phosphorylated Rab10 in lysates of HEK cells overexpressing LRRK2 (Homo sapiens, UniProt P61026)
T2 construct: expressed in transfected cells; host or cells: HEK cells overexpressing LRRK2
T2 sequence (P61026 1-200): T1 sequence (P61026 1-200)

T3: pT73-Rab10 (Homo sapiens, UniProt P61026)
T3 construct: Strong endogenous phosphorylated Rab10 or phosphorylated Rab8a in human PBMC; host or cells: human PBMC
T3 sequence (P61026 1-200): T1 sequence (P61026 1-200)

T4: endogenous phosphorylated Rab8a in human PBMC (Homo sapiens, UniProt P61006)
T4 construct: Strong endogenous phosphorylated Rab10 or phosphorylated Rab8a in human PBMC; host or cells: human PBMC
T4 sequence (P61006 1-207): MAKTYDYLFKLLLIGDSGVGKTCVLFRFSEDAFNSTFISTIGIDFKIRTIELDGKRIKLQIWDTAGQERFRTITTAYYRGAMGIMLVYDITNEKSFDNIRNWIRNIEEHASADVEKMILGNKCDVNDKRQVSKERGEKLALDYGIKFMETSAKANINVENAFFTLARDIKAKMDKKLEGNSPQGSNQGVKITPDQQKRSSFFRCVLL

B1: Clone 19-4: anti-phosphorylated (pT73) Rab10 rabbit monoclonal antibody; VH SEQ ID NO:17, VL SEQ ID NO:18 (antibody, V domains shown)
VH: METGLRWLLLVAVLKGVQCQSVEESGGRLVTPGTPLTLTCTVSGFSLSSYAMVWVRQAPGKGLEYIGLISRSGVTYYATWAKGRFTISKASTTVDLKIASPTTGDTATYFCVRDYDSAGWSGFTIWGPGTLVTVSA
VL: MDTRAPTQLLGLLLLWLPGAICDPVMTQTPSSTSAAVGGTVTINCQSSQSVYGNNYLSWYQQKPGQPPKLLIYKASTLASGVPSRFVGSGSGTQFTLTISDLECDDAATYYCAGAASDTRFFGGGTELVVN
B2: Clone 71-3: anti-phosphorylated (pT72) Rab8a rabbit monoclonal antibody; VH SEQ ID NO:71, VL SEQ ID NO:75 (antibody, V domains shown)
VH: METGLRWLLLVAVLKGVQCQSVEESGGRLVTPGTPLTLTCTASGFSLNVYYMTWVRQAPGKGLDWIGIINTDITVHYANWARGRFTISKTSTTVDLKITSPTTEDTATYFCARARNSAWMDIWGPGTLVTVSL
VL: MDTRAPTQLLGLLLLWLPGATFAAVLTQTPSPVSAAVGGTVTINCQSDWSVYNNNLAWYQHKPGQPPKLLIYKTSTLASGVPSRFRGSGSGTQFTLTISDVQCDDTATYYCAGGYYRDSDTAFGGGTEVVVK
B3: Clone 81-11: anti-phosphorylated (pT73) Rab10 rabbit monoclonal antibody; VH SEQ ID NO:21, VL SEQ ID NO:25 (antibody, V domains shown)
VH: METGLRWLLLVAVLKGVQCQSVEESGGRLVTPGTPLTLTCTVSGFSLSSYAMSWVRQAPGKGLEYIGLFNDVGIAYYANWAKGRFTFSKTSTTVDLKITSPTTEDTATYFCARVGGTTRVYGMDLWGPGTLVTVSS
VL: MDTRAPTQLLGLLLLWLPGATFAAVLTQTPSPVSAAVGGTVSISCQSSKSVRHNNYLSWYQQKPGQRPKLLIYGASTLASGVPSRFSGSGSGTEFTLTISDVQCDDAATYYCAGGYSGGGDDAFGGGTEVVVE
B4: Clone 20: anti-phosphorylated (pT72) Rab8a rabbit monoclonal antibody; VH SEQ ID NO:63, VL SEQ ID NO:66 (antibody, V domains shown)
VH: METGLRWLLLVAVLKGVQCQSVEESGGRLVTPGTPLTLTCTVSGFSLSSYAMGWVRQAPGEGLEYFGIINTGGSAYYTNWAKGRFTISRTSTTVHLKITSPTTEDTATYFCARIAGDTRYYGMDPWGPGTLVTVSS
VL: B3 VL with H53N, S58A, R67P, S87K, E94Q, S117D, G120S, E133K
B5: Clone 86-9: anti-phosphorylated (pT72) Rab8a rabbit monoclonal antibody; VH SEQ ID NO:81, VL SEQ ID NO:85 (antibody, V domains shown)
VH: METGLRWLLLVAVLKGVQCQSVEESGGRLVTPGTPLTLTCTVSGFSLSSYYITWVRQAPGKGLEWLGIMNAGTTVHYANWVKGRFAISKTSTTVDLKITSPTTEDTATYFCARARNSVWMDIWGPGTLVTVSL
VL: MDTRAPTQLLGLLLLWLPGATLAAVLTQTPSPVSGAVGGSVTVNCQSDKSVYRDNLAWYQQKPGQPPKLLIYKASTLASGVPSRFRGSGAGTQFTLTISDVQCDDAATYFCAGGYSSDSDTAFGGGTEVVVK

How the values were obtained:
[1] = system: LRRK2; test: 7 days of dosing in cynomolgus monkeys, pT73-Rab10 and pS935-LRRK2 western blot; assay type: in vivo, cynomolgus monkey; conditions: 45 mg/kg daily
Procedure: Phosphorylated Rab10 was also tested in cynomolgus monkey lung and kidney tissue following 7 days of dosing with a LRRK2 inhibitor. Cynomolgus monkeys were dosed daily with the LRRK2 Inhibitor C at a dose of 45 mg/kg. […] Signals from dosed groups were normalized to vehicle control group. Data were presented as mean with SEM.

[2] = biological target: T1, endogenous phosphorylated Rab10 in human PBMC; test: Western blot of human PBMC with anti-pT73-Rab10 antibodies; assay type: binding; conditions: for detection of endogenous phosphorylated Rab10 signals in human PBMC by western blot: antibody at 1 ug/ml; for Western blot Human PBMC Ratio of DMSO/LRRK2 inhibitor A (mean ± SEM): band intensity normalized with Actin control for each of DMSO and LRRK2 inhibitor A, antibody 1 ug/ml
[3] = biological target: T2, phosphorylated Rab10 in lysates of HEK cells overexpressing LRRK2; test: Sandwich ELISA (diagnostic), HEK cells overexpressing LRRK2; assay type: binding; conditions: for Sandwich ELISA (diagnostic), Ratio: DMSO / LRRK2 inhibitor A RLU; for Sandwich ELISA (diagnostic) HEK cells overexpressing LRRK2, DMSO (RLU mean ± SD): DMSO treated cells; for Sandwich ELISA (diagnostic) HEK cells overexpressing LRRK2, LRRK2 inhibitor A (RLU mean ± SD): cells treated with LRRK2 inhibitor A
Procedure: Sandwich ELISA (Diagnostic) with Anti-Phospho-Rab10 Antibody as the Capture Antibody:
ELISA plates were prepared by coating white Nunc MaxiSorp 384 well plates (Thermo Fisher #460372/Sigma #P6491) with capture antibody for 1 hour at room temperature on a shaking platform. The capture antibody was purified anti-phospho-Rab10 clone 19-4 diluted to 1 ug/mL in carbonate-bicarbonate buffer, and 15 uL/well of coating solution was added to the plate before incubation. Plates were then washed 3× with TBST on a BioTek plate washer. For all subsequent blocking/incubation steps, Pierce Starting Block T20 (TBS) was used (Thermo Fisher #37543). Plates were blocked […] in this solution using 80 uL/well and washed 3× as before. Afterwards samples of cell lysates were added (neat with no dilution) using 30 uL/well and incubated 1 hour at room temperature on a shaking platform. After another 3× wash detection antibody (Creative Diagnostics DCABH 13141, or Abcam, ab104859, 2 ug/mL) was added using 30 uL/well. After 60 minute incubation at room temperature and washing 3×, the secondary anti-species conjugate was added (anti-rabbit HRP antibody (Jackson ImmunoResearch 111-035-144) diluted 1:20000 in assay diluent) at 30 uL/well. After a 60 minute incubation, plates were washed 3× as before. The HRP substrate (Supersignal ELISA Femto HRP substrate—Thermo Fisher #37075) was prepared during this time by mixing both components and equilibrating to room temperature. 50 uL/well of substrate was added to plates, which then were covered and briefly incubated for 1-2 minutes on a shaker platform. Afterwards plates were read on the Synergy plate reader to measure relative light units (RLU).
Sandwich ELISA (Diagnostic) with Anti-Rab10 (Total) Antibody as the Capture Antibody:
ELISA plates were prepared by coating white Nunc MaxiSorp 384 well plates (Thermo Fisher #460372/Sigma # P6491) with capture antibody overnight at 4° C. on a shaking platform. The capture antibodies (anti-Rab10 antibody from either Creative Diagnostics, DCABH-13141, or Abcam, ab104859) were diluted to […] (or 1:100 if the concentration not known) in carbonate-bicarbonate buffer, and 15 uL/well of coating solution was added to the plate before incubation. After this plates were washed 3× with TBST on a BioTek plate washer. For all subsequent blocking/incubation steps, Pierce Starting Block (TBS) (no Tween added) was used (Thermo Fisher #37542). Plates were blocked for 1 hour at room temperature in this solution using 80 uL/well and washed 3× as before. Afterwards samples were added (with lysates being diluted 1:20 in the assay diluent) using 30 uL/well and incubated 2 hours at room temperature on a shaking platform. After another 3× wash detection antibodies were added (diluted to 1 ug/mL for purified antibodies or 1:2 for supernatants) using 30 uL/well. After 90 minute incubation at room temperature and washing 3× the secondary anti-species conjugate was added (anti-rabbit HRP antibody (Jackson ImmunoResearch 111-035-144) diluted 1:20000 in assay diluent) at 30 uL/well. After a 45 minute incubation plates were washed 3× as before. The HRP substrate (Supersignal ELISA Femto HRP substrate—Thermo Fisher #37075) was prepared during this time by mixing both components and equilibrating to room temperature. 50 uL/well of substrate was added to plates, which then were covered and briefly incubated for 1-2 minutes on a shaker platform. Afterwards plates were read on the Synergy plate reader to measure relative light units (RLU).

[4] = biological target: T3, pT73-Rab10; test: Phospho-Rab10 MSD assay (clone 19-4 as capture antibody); assay type: binding; conditions: anti-total Rab10 antibody for detection
[5] = biological target: T4, endogenous phosphorylated Rab8a in human PBMC; test: Western blot of human PBMC with anti-pT72-Rab8a antibodies; assay type: binding; conditions: for detection of endogenous phosphorylated Rab8a signals in human PBMC by western blot: antibody at 1 ug/ml; for Western blot Human PBMC Ratio of DMSO/LRRK2 inhibitor A (mean ± SEM): band intensity normalized with Actin control for each of DMSO and LRRK2 inhibitor A, antibody 1 ug/ml
[6] = normalized to actin and vehicle control group, mean with SEM, N = 4
[7] = normalized to vinculin and vehicle control group, mean with SEM, N = 4

Molecule	Western blot Human PBMC Ratio of DMSO/LRRK2 inhibitor A (mean ± SEM) [2]	Sandwich ELISA (diagnostic), Ratio [3]	Sandwich ELISA (diagnostic) HEK cells overexpressing LRRK2, DMSO (RLU mean ± SD) [3] [RLU]	Sandwich ELISA (diagnostic) HEK cells overexpressing LRRK2, LRRK2 inhibitor A (RLU mean ± SD) [3] [RLU]	detection of endogenous phosphorylated Rab8a signals in human PBMC by western blot [5]	Western blot Human PBMC Ratio of DMSO/LRRK2 inhibitor A (mean ± SEM) [5]	also measured
Cc1nn(C(C)(C)c2ncn(C)n2)cc1Nc1ncc(C(F)(F)F)c(C2CC2)n1 [LRRK2 Inhibitor C, 4-cyclopropyl-N-(3-methyl-1-(2-(1-methyl-1H-1,2,4-triazol-3-yl)propan-2-yl)-1H-pyrazol-4-yl)-5-(trifluoromethyl)pyrimidin-2-amine]							dephosphorylation of pT73-Rab10 and pS935-LRRK2 ([1]; lung and kidney): significant dephosphorylation; pT73-Rab10, Kidney [1, 6]: 0.547 ± 0.125; pT73-Rab10, Lung [1, 6]: 0.189 ± 0.0562; pS935-LRRK2, Kidney [1, 7]: 0.0563 ± 0.0147; pS935-LRRK2, Lung [1, 7]: 0.102 ± 0.0215
B1	2.95 ± 0.68	37.40	80524 ± 7835	2153 ± 774			detection of endogenous phosphorylated Rab10 signals in human PBMC by western blot ([2]; listed as 19-4): detected endogenous phosphorylated Rab signals; also recorded: Detection of phosphorylated Rab10; pRab10 signals in phospho-Rab10 MSD assay ([4]; human A549 cells, listed as 19-4): showed pRab10 signals; pRab10 signals in phospho-Rab10 MSD assay ([4]; human PBMCs): showed pRab10 signals
B2					detected endogenous phosphorylated Rab signals	2.61 ± 0.42	
B3	2.48 ± 0.31	33.74	473585 ± 44210	14037 ± 1627			detection of endogenous phosphorylated Rab10 signals in human PBMC by western blot [2]: detected endogenous phosphorylated Rab signals
B4						3.50 ± 0.52	detection of endogenous phosphorylated Rab8a signals in human PBMC by western blot ([5]; listed as 20): detected endogenous phosphorylated Rab signals
B5					detected endogenous phosphorylated Rab signals	2.26 ± 0.12	

— US11661461B2, “Phospho-Rab antibodies, assays and methods of use thereof” (Denali Therapeutics Inc., priority 2017, dated 2023)
